Experimental data published in patent publication US20210403591A1 (OSSIANIX, published 2021).
Like-named read-outs stand apart in the source and are kept apart here.

Legend:
[1] = target: T1, purified WT mTfR-1 (ELISA coat) (mouse, UniProt Q62351 89-763); assay: ELISA, coated purified WT mTfR1
Protocol: Serial dilutions the VNAR-Fc fusion protein in blocking buffer (PBS-0.1% Tween+2.5% milk) were exposed to pre-blocked Nunc Maxisorp 96-well plates coated with the M1, M2 and M3 mutants at 1 μg/mL. After washing in PBS-0.1% Tween-20, binding of Clone C-hFc fusion was detected using an anti-human IgG (Fc specific) peroxidase antibody (Sigma-Aldrich) and the plates were developed using the chromogenic substrate TMB. Absorbance at 450 nm was recorded using an Envision multi-well reader (Perkin Elmer) and EC50s were calculated by fitting curves (non-linear regression) using GraphPad Prism®.
The binding of Clone C compared to the 8D3 antibody was tested on purified WT mTfR1 in addition to the three mutants by ELISA (FIG. 26).

[2] = target: T1, purified WT mTfR-1 (ELISA coat); assay: ELISA, coated purified mTfR-1
[3] = target: T2, purified mTfR1 mutant M1 (AGS) (mouse, UniProt Q62351 89-763); assay: ELISA, coated purified mTfR-1
T2 construct: also called N253A
T2 sequence (Q62351 other isoform, or with tags, fused parts or gaps mutant): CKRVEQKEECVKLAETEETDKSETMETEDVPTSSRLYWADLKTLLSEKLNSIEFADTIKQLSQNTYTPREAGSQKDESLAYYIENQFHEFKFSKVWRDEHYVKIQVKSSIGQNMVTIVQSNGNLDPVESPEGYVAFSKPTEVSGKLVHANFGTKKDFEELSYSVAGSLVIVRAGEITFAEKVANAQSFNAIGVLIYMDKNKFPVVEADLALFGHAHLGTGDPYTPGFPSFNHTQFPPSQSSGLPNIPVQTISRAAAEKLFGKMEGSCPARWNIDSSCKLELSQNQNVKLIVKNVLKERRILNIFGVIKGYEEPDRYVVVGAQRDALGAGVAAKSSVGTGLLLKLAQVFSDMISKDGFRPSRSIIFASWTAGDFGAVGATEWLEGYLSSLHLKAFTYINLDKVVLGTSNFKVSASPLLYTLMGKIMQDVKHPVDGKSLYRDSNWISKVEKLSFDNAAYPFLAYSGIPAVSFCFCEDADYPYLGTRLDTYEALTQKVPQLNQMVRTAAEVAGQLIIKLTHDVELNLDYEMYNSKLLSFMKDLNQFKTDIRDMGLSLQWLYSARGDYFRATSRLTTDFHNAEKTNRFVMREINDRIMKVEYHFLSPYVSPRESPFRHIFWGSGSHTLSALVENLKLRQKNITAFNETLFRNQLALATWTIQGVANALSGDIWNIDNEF

[4] = target: T3, purified mTfR1 mutant M2 (NAS) (mouse, UniProt Q62351 89-763); assay: ELISA, coated purified mTfR-1
T3 construct: also called G254A
T3 sequence (Q62351 other isoform, or with tags, fused parts or gaps mutant): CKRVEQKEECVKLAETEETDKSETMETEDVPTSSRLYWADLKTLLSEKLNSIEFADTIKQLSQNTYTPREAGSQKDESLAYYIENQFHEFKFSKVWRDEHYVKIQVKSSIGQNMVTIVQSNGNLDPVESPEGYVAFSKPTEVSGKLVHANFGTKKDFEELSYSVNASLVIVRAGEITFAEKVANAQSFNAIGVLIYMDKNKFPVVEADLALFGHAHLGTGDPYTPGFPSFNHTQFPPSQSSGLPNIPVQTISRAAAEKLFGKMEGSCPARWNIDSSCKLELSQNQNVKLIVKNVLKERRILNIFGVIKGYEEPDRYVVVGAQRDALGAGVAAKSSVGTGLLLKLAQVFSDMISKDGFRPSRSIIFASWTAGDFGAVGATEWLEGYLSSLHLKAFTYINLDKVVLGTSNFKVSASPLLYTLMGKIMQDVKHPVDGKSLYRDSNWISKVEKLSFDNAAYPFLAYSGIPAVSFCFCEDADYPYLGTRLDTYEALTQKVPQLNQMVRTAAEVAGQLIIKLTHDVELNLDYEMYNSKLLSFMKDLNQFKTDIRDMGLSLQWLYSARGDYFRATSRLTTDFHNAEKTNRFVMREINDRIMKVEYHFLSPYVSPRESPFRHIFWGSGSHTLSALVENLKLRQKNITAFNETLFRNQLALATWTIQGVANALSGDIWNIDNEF

[5] = target: T4, purified mTfR1 mutant M3 (NGA) (mouse, UniProt Q62351 89-763); assay: ELISA, coated purified mTfR-1
T4 construct: also called S255A
T4 sequence (Q62351 other isoform, or with tags, fused parts or gaps mutant): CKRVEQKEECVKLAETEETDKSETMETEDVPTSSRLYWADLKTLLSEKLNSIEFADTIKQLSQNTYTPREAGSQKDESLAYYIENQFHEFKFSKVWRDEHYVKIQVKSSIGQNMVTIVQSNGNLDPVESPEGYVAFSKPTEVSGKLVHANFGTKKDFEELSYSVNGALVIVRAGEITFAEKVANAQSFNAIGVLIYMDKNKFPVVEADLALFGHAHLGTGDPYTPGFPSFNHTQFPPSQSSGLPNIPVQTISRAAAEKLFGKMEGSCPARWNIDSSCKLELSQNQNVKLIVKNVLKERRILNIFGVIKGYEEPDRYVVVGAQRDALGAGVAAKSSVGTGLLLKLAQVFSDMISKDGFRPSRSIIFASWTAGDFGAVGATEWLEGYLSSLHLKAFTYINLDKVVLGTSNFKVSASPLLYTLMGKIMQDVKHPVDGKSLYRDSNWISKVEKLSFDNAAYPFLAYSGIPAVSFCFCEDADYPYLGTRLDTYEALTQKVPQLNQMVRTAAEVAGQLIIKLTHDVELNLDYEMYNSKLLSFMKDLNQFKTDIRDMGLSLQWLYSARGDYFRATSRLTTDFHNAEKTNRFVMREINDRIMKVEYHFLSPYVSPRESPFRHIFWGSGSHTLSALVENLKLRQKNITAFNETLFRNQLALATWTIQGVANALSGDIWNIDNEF

[6] = target: T1, purified WT mTfR-1 (ELISA coat); assay: ELISA, coated purified mTfR-1; remark: listed apart in the source
[7] = target: T2, purified mTfR1 mutant M1 (AGS); assay: ELISA, coated purified mTfR-1; remark: listed apart in the source
[8] = target: T3, purified mTfR1 mutant M2 (NAS); assay: ELISA, coated purified mTfR-1; remark: listed apart in the source
[9] = target: T4, purified mTfR1 mutant M3 (NGA); assay: ELISA, coated purified mTfR-1; remark: listed apart in the source
[10] = target: T3, purified mTfR1 mutant M2 (NAS); assay: ELISA, plate coated with purified mTfR-1 mutant M2 (NAS), serial dilution of the binder; y axis Norm. Vmax OD at 650nm

T1 sequence (Q62351 89-763): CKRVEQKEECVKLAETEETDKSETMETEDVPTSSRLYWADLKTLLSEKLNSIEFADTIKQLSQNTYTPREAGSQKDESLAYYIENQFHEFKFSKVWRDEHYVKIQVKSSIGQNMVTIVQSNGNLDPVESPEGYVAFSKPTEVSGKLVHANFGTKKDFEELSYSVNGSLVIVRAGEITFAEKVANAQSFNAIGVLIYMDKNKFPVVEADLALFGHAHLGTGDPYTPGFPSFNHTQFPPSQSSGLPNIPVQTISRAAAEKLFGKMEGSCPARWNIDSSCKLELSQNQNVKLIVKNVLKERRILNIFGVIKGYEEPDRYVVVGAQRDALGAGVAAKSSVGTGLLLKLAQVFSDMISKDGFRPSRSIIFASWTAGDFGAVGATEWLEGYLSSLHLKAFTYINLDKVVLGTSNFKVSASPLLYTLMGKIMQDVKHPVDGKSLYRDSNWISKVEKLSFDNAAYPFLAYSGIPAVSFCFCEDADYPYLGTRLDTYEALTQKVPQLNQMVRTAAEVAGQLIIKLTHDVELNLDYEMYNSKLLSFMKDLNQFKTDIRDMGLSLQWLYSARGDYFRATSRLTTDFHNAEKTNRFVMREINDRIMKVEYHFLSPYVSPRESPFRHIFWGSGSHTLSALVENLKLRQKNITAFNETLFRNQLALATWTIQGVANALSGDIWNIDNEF

Row | EC50 [1] | EC50 [2] | EC50 [3] | EC50 [4] | EC50 [5] | EC50 [6] | EC50 [7] | EC50 [8] | EC50 [9] | EC50 (read off the curve) [10] | Binder
1 | 65.4 nM |  |  |  |  |  |  |  |  |  | Clone C VNAR-hFc fusion (Fc fusion, not shown: a dimerising Fc or GST, bivalent VNAR-Fc; also called Clone C-hFc) ARVDQTPQTITKETGESLTINCVLRDSNCALSSTYWYRKKSGSTNEENISKGGRYVETVNSGSKSFSLRINDLTVEDSGTYRCNVVQYPSYNNYFWCDVYGDGTAVTVN
2 |  | 0.8 nM | 1.1 nM | 13 nM | 0.79 nM |  |  |  |  |  | Clone C variant 13 VNAR-hFc (Fc fusion, not shown: a dimerising Fc or GST, also called Clone C v13; Clone C var; 13) ARVDQTPQTITKETGESLTINCVLRDSNCALSSTYWYRKKSGSTNEENISKGGRYVETVNSGSKSFSLRINDLTVEDSGTYRCNVVQYPQQDNYFWCDVYGDGTAVTVN
3 |  | 0.69 nM | 5.9 nM | 200 nM | 2.6 nM |  |  |  |  |  | Clone C variant 18 VNAR-hFc (Fc fusion, not shown: a dimerising Fc or GST, also called Clone C v18; Clone C var; 18) ARVDQTPQTITKETGESLTINCVLRDSNCALSSTYWYRKKSGSTNEENISKGGRYVETVNSGSKSFSLRINDLTVEDSGTYRCNVVQYPQYPNYFWCDVYGDGTAVTVN
4 | 11.1 nM |  |  |  |  | 0.49 nM | 0.35 nM | 0.33 nM | 0.51 nM | ~4 nM | 8D3 antibody (anti-mouse TfR-1 control; 8D3-hFc formatted antibody) (antibody, V domains shown) VH: EVQLVESGGGLVQPGNSLTLSCVASGFTFSNYGMHWIRQAPKKGLEWIAMIYYDSSKMNYADTVKGRFTISRDNSKNTLYLEMNSLRSEDTAMYYCAVPTSHYVVDVWGQGVSVTVSS VL: DIQMTQSPASLSASLEEIVTITCQASQDIGNWLAWYQQKPGKSPQLLIYGATSLADGVPSRFSGSRSGTQFSLKISRVQVEDIGIYYCLQAYNTPWTFGGGTKLELK
